The chains are these.
T1: Human TNFR1 (Acro Biosystem, TN1-H5222) (human, UniProt P19438 30-211)
T1 construct: Bought protein; also called TNF receptor type 1; CD120a
T1 sequence (looked up): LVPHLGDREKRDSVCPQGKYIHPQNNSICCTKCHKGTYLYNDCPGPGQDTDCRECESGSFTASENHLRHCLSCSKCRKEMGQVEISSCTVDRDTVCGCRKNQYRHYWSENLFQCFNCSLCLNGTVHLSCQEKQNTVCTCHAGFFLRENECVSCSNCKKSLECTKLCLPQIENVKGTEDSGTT

T2: mouse TNFR2 (R&D systems, 426-R2-050/CF) (mouse, UniProt P25119 23-258)
T2 construct: Bought protein
T2 sequence (looked up): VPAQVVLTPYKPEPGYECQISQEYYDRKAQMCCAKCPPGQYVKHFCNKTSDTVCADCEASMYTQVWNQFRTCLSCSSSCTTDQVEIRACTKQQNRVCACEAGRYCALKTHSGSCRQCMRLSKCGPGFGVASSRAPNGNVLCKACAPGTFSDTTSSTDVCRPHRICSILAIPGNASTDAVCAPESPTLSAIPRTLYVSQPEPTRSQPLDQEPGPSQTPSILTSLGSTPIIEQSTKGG

T3: rat TNFR2 (R&D systems, 8348-R2-050) (rat, UniProt Q80WY6 23-258)
T3 construct: Bought protein
T3 sequence (looked up): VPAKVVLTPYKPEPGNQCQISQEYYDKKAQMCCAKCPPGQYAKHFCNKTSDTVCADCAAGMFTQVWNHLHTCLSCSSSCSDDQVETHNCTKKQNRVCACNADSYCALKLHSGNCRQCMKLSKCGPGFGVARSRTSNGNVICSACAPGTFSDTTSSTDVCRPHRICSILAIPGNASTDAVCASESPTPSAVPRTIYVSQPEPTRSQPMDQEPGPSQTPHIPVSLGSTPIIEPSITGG

T4: His tagged human TNFR2 ECD (Acro Biosystem, TN2-H5227) (human, UniProt P20333 23-257)
T4 construct: extracellular domain; Bought protein; also called TNFR2-His; hTNFR2-His; not shown: His tag
T4 sequence (looked up): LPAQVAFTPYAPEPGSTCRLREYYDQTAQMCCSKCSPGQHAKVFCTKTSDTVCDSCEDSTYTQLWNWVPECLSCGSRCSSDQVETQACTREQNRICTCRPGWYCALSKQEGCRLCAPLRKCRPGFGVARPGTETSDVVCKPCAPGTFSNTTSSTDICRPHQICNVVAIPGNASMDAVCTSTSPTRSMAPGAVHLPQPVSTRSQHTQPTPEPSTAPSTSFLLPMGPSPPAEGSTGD

T5: Full length human TNFR2 on Jurkat E6-1 cells (Clone NO.3) (human, UniProt P20333 23-461)
T5 construct: whole, on cells; also called human TNFR2+ Jurkat cells; hTNFR2 Jurkat
T5 sequence (looked up): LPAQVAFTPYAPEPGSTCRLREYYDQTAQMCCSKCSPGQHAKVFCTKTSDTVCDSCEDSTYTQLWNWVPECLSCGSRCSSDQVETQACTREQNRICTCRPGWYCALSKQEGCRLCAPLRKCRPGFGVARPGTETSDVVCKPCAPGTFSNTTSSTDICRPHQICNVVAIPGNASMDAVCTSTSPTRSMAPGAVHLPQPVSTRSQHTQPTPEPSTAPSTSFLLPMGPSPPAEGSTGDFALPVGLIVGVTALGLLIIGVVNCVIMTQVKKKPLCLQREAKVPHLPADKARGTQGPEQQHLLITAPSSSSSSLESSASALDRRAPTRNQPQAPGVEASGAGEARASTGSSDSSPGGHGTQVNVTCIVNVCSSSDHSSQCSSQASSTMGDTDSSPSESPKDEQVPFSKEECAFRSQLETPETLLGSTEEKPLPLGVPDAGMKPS

B1: TN36-3 (antibody, human IgG1, V domains shown)
VH: EVQLVESGGGLIQPGGSLRLSCAASGFSLSSSAVSWVRQAPGKGLEWIGAIGSGGTSYYSNWAKSRFTISRDNSKNTLYLQMNSLRAEDTAVYYCARDPNSSDYPYGAYGMGLWGRGTLVTVSS
VL: DIQMTQSPSSLSASVGDRVTITCQVSQSISSYLSWYQQKPGKPPKLLIYYASTLASGVPSRFSGSGSGTDFTLTISSLQPEDFATYYCQQGYITSNVGNAFGGGTKVEIK
notes: Humanized; also called AL2/AL9
B2: TN36-6 (antibody, human IgG1, V domains shown)
VH: B1 VH with Y94F
VL: B1 VL with P43A
notes: Humanized; also called AL3/AL8
B3: TN36-8 (antibody, human IgG1, V domains shown)
VH: B1 VH with Y94F
VL: B1 VL with S10F, P43A
notes: Humanized; also called AL3/AL10
B4: TN36-4 (antibody, human IgG1, V domains shown)
VH: B1 VH
VL: B1 VL with S10F, P43A
notes: Humanized; also called AL2/AL10
B5: TN36-7 (antibody, human IgG1, V domains shown)
VH: B1 VH with Y94F
VL: B1 VL
notes: Humanized; also called AL3/AL9
B6: TN36-21 (antibody, human IgG1, V domains shown)
VH: B1 VH with I12V, R116P
VL: B1 VL with M4L, S10F, P43A, D70E
notes: Humanized; also called AL6/AL11
B7: TN36-20 (antibody, human IgG1, V domains shown)
VH: B1 VH with I12V, R116P
VL: B1 VL with S10F, P43A
notes: Humanized; also called AL6/AL10
B8: TN36-5 (antibody, human IgG1, V domains shown)
VH: B1 VH
VL: B1 VL with M4L, S10F, P43A, D70E
notes: Humanized; also called AL2/AL11

Numbering of substitutions follows the chain as printed.

One test has as its target T1, Human TNFR1 (Acro Biosystem, TN1-H5222). Briefly: ELISA, receptor coated at 1 µg/mL. As to the method: (§1) Human TNFR2 (Acro Biosystem, TN2-H5227), Human TNFR1 (Acro Biosystem, TN1-H5222), Cynomolgus TNFR2 (Sino Biological, 90102-CO8H) or mouse TNFR2 (R&D systems, 426-R2-050/CF) was coated on high binding polystyrene flat bottom micro-titer plates (Thermo Scientific, 3455) in PBS (PH=7.4, Gibco,10010-031) at 1 μg/mL and 100 μL per well. Plates were incubated at 4° C. overnight.
(§2) Plates were warmed up to room temperature the next day and washed with 200 μL PBS containing 0.1% Tween 20 (Life technologies, 003005) per well for 3 times. Plates were blocked with 200 μL PBS buffer containing 1% BSA (Fisher Scientific, BP1600-100) per well for 1 hour at 37° C. Antibodies was titrated from 5 μg/mL in a 5-fold dilution series, distributed 100 μL per well and incubated at 37° C. for 1 hour. Human IgG1 isotype control (BioxCell, BE0297) was used as negative control. Plates were washed with 200 μL PBS containing 0.1% Tween 20 (Life technologies, 003005) per well for 3 times. Goat anti-Human IgG Fc Secondary Antibody-HRP conjugate (Invitrogen, A18817) were distributed at 0.5μg/mL and 100 μL per well to detect bound antibodies. After 1-hour incubation of secondary antibody at 37° C., plates were washed with 200 μL PBS containing 0.1% Tween 20 (Life technologies, 003005) per well for 3 times. Plates were developed using TMB Substrate Solution (eBioscience, 00-4201-56) and stopped with ELISA stop solution (Invitrogen, SSO4). The level of bound antibodies was determined by reading absorbance at 450 nm. Mouse anti-human TNFR1 antibody (ThermoFisher Scientific, MA1-81005) and goat anti mouse IgG secondary antibody-HRP conjugate (Invitrogen, 62-5520) were used as positive control for human TNFR1 detection. Armenian Hamster anti-mouse TNFR2 antibody (InVivoMab, BE0247) and HRP-Goat anti-Armenian Hamster IgG (H+L) Secondary Antibody (Invitrogen, PA1-32045) were used as positive control for mouse TNFR2 detection.
B1: the binding result was “no binding (tested: titrated from 5 µg/mL)”.

Take B2: the binding result is listed as “no binding (tested: titrated from 5 µg/mL)”.

In the case of B3, the binding result was “no binding (tested: titrated from 5 µg/mL)”.

As for B4, the binding result is recorded as “no binding (tested: titrated from 5 µg/mL)”.

Regarding B5, the binding result was “no binding (tested: titrated from 5 µg/mL)”.

Take B6: the binding result is “no binding (tested: titrated from 5 µg/mL)”.

Turning to B7, the binding result was “no binding (tested: titrated from 5 µg/mL)”.

For B8, the binding result is given as “no binding (tested: titrated from 5 µg/mL)”.

In another test the target is T2, mouse TNFR2 (R&D systems, 426-R2-050/CF). Briefly: ELISA, receptor coated at 1 µg/mL. As to the method:
as §1, §2
On the technique in general: ELISA stands for enzyme-linked immunosorbent assay.
In the case of B1, the binding result is “no binding (tested: titrated from 5 µg/mL)”.

Take B2: the binding result is given as “no binding (tested: titrated from 5 µg/mL)”.

As to B3, the binding result is “no binding (tested: titrated from 5 µg/mL)”.

As for B4, the binding result is “no binding (tested: titrated from 5 µg/mL)”.

In the case of B5, the binding result is “no binding (tested: titrated from 5 µg/mL)”.

On to B6, for which the binding result was “no binding (tested: titrated from 5 µg/mL)”.

Regarding B7, the binding result is “no binding (tested: titrated from 5 µg/mL)”.

On to B8, for which the binding result is “no binding (tested: titrated from 5 µg/mL)”.

The target of a further test is T3, rat TNFR2 (R&D systems, 8348-R2-050). Briefly: ELISA, receptor coated at 1 µg/ml. On the procedure:
Plates were incubated at 4° C. overnight. Antibodies was titrated from 100 μg/ml in a 5-fold dilution series, and distributed 100 μL, per well and incubated at 37° C. for 1 hour. Human IgG1 isotype control (BioxCell, BE0297) was used as negative control. TNFR2 Polyclonal Antibody (Invitrogen, PAS-80159) and HRP conjugated Goat anti-Rabbit IgG Fc Secondary Antibody (Invitrogen, A16116) were used as positive control for rat TNFR2 detection.
As for B1, the binding result is listed as “no binding (tested: titrated from 100 µg/ml)”.

For the molecule B2, the binding result is recorded as “no binding (tested: titrated from 100 µg/ml)”.

As to B3, the binding result is listed as “no binding (tested: titrated from 100 µg/ml)”.

Regarding B4, the binding result was “no binding (tested: titrated from 100 µg/ml)”.

Regarding B5, the binding result was “no binding (tested: titrated from 100 µg/ml)”.

As for B6, the binding result is “no binding (tested: titrated from 100 µg/ml)”.

For B7, the binding result is “no binding (tested: titrated from 100 µg/ml)”.

Consider B8, for which the binding result is “no binding (tested: titrated from 100 µg/ml)”.

The next test deals with T4, His tagged human TNFR2 ECD (Acro …). Briefly: ELISA, receptor coated at 1 µg/mL, antibody titrated from 5 µg/mL. As to the method: as §1, §2
As for B1, the binding result is given as “binds”.

For the molecule B2, the binding result is given as “binds”.

With B3, the binding result is recorded as “binds”.

As to B4, the binding result was “binds”.

Consider B5, for which the binding result is on record as “binds”.

B8: the binding result is “binds”.

The next test has as its target T5, Full length human TNFR2 on Jurkat E6-1 …. Briefly: FACS on human TNFR2+ Jurkat Clone No.3, biotinylated antibody with streptavidin-PE. On the procedure: FACS analysis was used to evaluate the binding of purified anti-TNFR2 antibody candidates produced from example 6 to cell surface TNFR2 target. Anti-human TNFR2 antibodies and negative control IgG were biotinylated using a EZ-Link™ Micro Sulfo-NHS-Biotinylation Kit (Thermo Fisher Scientific, 21925) according to manufacturer's instructions. Biotinylated antibodies (100 μg/mL) were then incubated with Halt™ Protease Inhibitor Cocktail (100X, Thermo Scientific, 1862209) and 80 μg/mL Streptavidin-R-Phycoerythrin (PE) conjugate (Invitrogen, S21388). Antibodies were stored at 4° C. until use. 5×10⁵ Clone No.3 of human TNFR2⁺ Jurkat cells were distributed each well and blocked with human TruStain FcX™ (Biolegend, 422302) for 10 minutes at room temperature before stained with a serially diluted PE conjugated anti-human TNFR2 antibodies or hIgG1 starting from 50 μg/mL in a 5-fold dilution fashion for 30 minutes at 4° C. PE-anti hTNFR2 (Clone MR2-1, Thermo fisher #TNFR7504) was used as positive control. The geometric mean fluorescent intensity was measured on Sony SA3800 cell analyzer. Data were analyzed using Flowjo Software (Tree star Inc).
For B1, the binding result is listed as “binds”.

As to B2, the binding result was “binds”.

As to B3, the binding result is listed as “binds”.

With B4, the binding result is on record as “binds”.

B5: the binding result is on record as “binds”.

Take B8: the binding result is given as “binds”.
